Reference: the DeepSol protein solubility set

Experiment: soluble on expression in E. coli; label from the status in PepcDB or PDB records

Row | Sequence | soluble on expression in E. coli
1 | MGSDKIHHHHHHVDLMLKSVISYFLPNYCLVCEREIDPNDYLCKDCLTSIRGPIMAPVELLNIDSAHSYWKYESPMKELIRAYKFGDRPGVARLFAKIVFEMIDVFAPSTDVIVPVPTSLQAFIRRGFDTNLRILRHLARTIDIKIDNVLSISGKTVPQSTLKMQDRIDNVRDKFFLRKKPRSTSVILFDDVVTSGATASQCARVLREGGVKEITLLAIASAKK | not soluble
2 | MAQGLIEVERKFAPGPDTEERLQELGATLEHRVTFRDTYYDTSELSLMLSDHWLRQREGSGWELKCPGVTGVSGPHNEYVEVTSEAAIVAQLFELLGSGEQKPAGVAAVLGSLKLQEVASFITTRSSWKLALSGAHGQEPQLTIDLDSADFGYAVGEVEAMVHEKAEVPAALEKIITVSSMLGVPAQEEAPAKLMVYLQRFRPLDYQRLLEAASSGEATGDSAS | soluble
3 | MSLGFVPVRGLHHFAYRCRDAEETRQFYEGILGLPLVHVVRAEEVPSTGEYCPYMHLFFEMKDGSCVAFFDLDDDTVPLPSSNTPVWAQHLALRVDSVAAVEEAKRKLEQAGVKVLGPVDHDGFVCSIYFFDPNGVRLELTTDTADSTEMARYRREARPGCDAWTLEKSLRRATGQGSVLREGHHHHHH | not soluble
4 | MSLEKQMNCNLKELKEFIDNEMLLILGQMDKPSLIFDHLYLGSEWNASNLEELQGSGVDYILNVTREIDNFFPGLFAYHNIRVYDEETTDLLAHWNEAYHFINKAKRNHSKCLVHCKMGVSRSASTVIAYAMKEFGWPLEKAYNYVKQKRSITRPNAGFMRQLSEYEGILDASKQRHNKLWRQQTDSEGHHHHHH | not soluble
5 | SDLQTRFRPPGAEISIIGLSASLAELVPPSNIENAPQIPRGEDGFFERVGNATREMLVYVGSVVRFIKECVLVFKLGINRRKNVNWTTVSNIATRAGADAVP | not soluble
6 | MKGMSKMPQFNLRWPGGGPQFNLRWPREVLDLVRKVAEENGRSVNSEIYQRVMESFKKEGRIGGTGGSGGGREVLDLVRKVAEENGRSVNSEIYQRVMESFKKEGRIGAHHHHHHKNQHE | soluble
7 | MSLKTSHLKEVPETLAMRESLRDRCAQVAAKLDRSHPMTKDEMEQISRRMLEEADLPESYLGWVMVMISSEFWADALASVPPERRLFLLPHCLKHAEGCPAEYDQFGMNCKECGACSIADFRSIAEDMGYRVLVAEGSPVVMKIIVGGYVDAVVGVACLNVLEKAIDKVLLAGIPCMAVPLLSSDCRNTKVDEPWVEQMIRTPYKPAAAKTKSYVHLMRAAGLLFEDTLFERLAEGHHHHHH | not soluble
8 | MRGSHHHHHHGSGSMHQRQTLYQLMDGLNTFYQQSLQQPVATSARQYLEKRGLSHEVIARFAIGFAPPGWDNVLKRFGGNPENRQSLIDAGMLVTNDQGRSYDRFRERVMFPIRDKRGRVIGFGGRVLGNDTPKYLNSPETDIFHKGRQLYGLYEAQQDNAEPNRLLVVEGYMDVVALAQYGINYAVASLGTSTTADHIQLLFRATNNVICCYDGDRAGRDAAWRALETALPYMTDGRQLRFMFLPDGEDPDTLVRKEGKEAFEARMEQAMPLSAFLFNSLMPQVDLSTPDGRARLSTLALPLISQVPGETLRIYLRQELGNKLGILDDSQLERLMPK | soluble
9 | SASLDRVKVLVLGDSGVGKSSLVHLLCQNQVLGNPSWTVGCSVDVRVHDYKEGTPEEKTCYIELWDVGGSVGSASSVKSTRAVFYNSVNGIIFVHDLTNKKSSQNLRRWSLEALNRDLVPTGVLVTNGDYDQEQFADNQIPLLVIGTKLDQIHETKRHEVLTTTAFLAEDFNPEEINLDCTNPRYLAAGSSNAVKLSRFFDKVIEKRYFLREGNQIPGFPDRKRFGAGTLKSLHYD | soluble
10 | LFDRVLVAYDFSKWADRALEYAKFVVKKTGGELHIIHVSEDGDKTADLRVMEEVIGAEGIEVHVHIESGTPHKAILAKREEINATTIFMGSRGAGSVMTMILGSTSESVIRRSPVPVFVCKRGDDE | not soluble
11 | MGSSHHHHHHSSGTIEGRMIRLTDNRPIGFIDSGVGGLTVVKEALKQLPNENILFVGDTARCPYGPRPAEQVIQYTWEMTDYLVEQGIKMLVIACNTATAVALEEIKAALSIPVIGVILPGTRAAVKKTQNKQVGIIGTIGTVKSQAYEKALKEKVPELTVTSLACPKFVSVVESNEYHSSVAKKIVAETLAPLTTKKIDTLILGCTHYPLLRPIIQNVMGENVQLIDSGAETVGEVSMLLDYFNLSNSPQNGRTLCQFYTTGSAKLFEEIAEDWLGIGHLNVEHIELGGK | soluble
